Measured values: publication PMC10397247
Values belong to the binder of their own block, whether it stands above or below them.

Legend:
Experiment in all cases: two-hybrid library CCNG1;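 further: natural log of median RNA to DNA barcode read ratio; higher means stronger binding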
O7-bH = target: T1, O7-bH
T1 chain: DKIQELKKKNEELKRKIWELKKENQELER

O3-bH = target: T2, O3-bH
T2 chain: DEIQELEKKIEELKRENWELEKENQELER

O5-bH = target: T3, O5-bH
T3 chain: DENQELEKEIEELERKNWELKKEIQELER

O4-bH = target: T4, O4-bH
T4 chain: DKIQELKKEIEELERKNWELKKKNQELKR

O9-bH = target: T5, O9-bH
T5 chain: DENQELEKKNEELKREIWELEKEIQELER

O8-bP = target: T6, O8-bP
T6 chain: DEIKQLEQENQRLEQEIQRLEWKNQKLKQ

O8-bH = target: T7, O8-bH
T7 chain: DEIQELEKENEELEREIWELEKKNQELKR

O6-bH = target: T8, O6-bH
T8 chain: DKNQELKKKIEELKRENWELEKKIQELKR

4H3974-bN = target: T9, 4H3974-bN
T9 chain: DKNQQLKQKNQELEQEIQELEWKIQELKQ

4H3414-bN = target: T10, 4H3414-bN
T10 chain: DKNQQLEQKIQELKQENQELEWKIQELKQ

4H619-bN = target: T11, 4H619-bN
T11 chain: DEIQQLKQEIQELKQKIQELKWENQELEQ

4H850-bN = target: T12, 4H850-bN
T12 chain: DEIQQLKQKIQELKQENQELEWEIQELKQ

4H570-bN = target: T13, 4H570-bN
T13 chain: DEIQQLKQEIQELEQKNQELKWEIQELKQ

4H906-bN = target: T14, 4H906-bN
T14 chain: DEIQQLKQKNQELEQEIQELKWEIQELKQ

4H3129-bN = target: T15, 4H3129-bN
T15 chain: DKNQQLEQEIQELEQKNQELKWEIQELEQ

4H3817-bN = target: T16, 4H3817-bN
T16 chain: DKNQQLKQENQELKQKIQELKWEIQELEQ

4H584-bN = target: T17, 4H584-bN
T17 chain: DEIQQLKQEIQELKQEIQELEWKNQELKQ

4H3631-bN = target: T18, 4H3631-bN
T18 chain: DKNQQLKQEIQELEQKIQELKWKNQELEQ

4H3172-bN = target: T19, 4H3172-bN
T19 chain: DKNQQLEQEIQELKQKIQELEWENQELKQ

4H3638-bN = target: T20, 4H3638-bN
T20 chain: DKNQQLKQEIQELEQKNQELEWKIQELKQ

P7bHq = target: T21, P7bHq
T21 chain: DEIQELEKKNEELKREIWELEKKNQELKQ

P6bHq = target: T22, P6bHq
T22 chain: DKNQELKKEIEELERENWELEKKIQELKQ

P8bHq = target: T23, P8bHq
T23 chain: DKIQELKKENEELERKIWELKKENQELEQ

P9bHq = target: T24, P9bHq
T24 chain: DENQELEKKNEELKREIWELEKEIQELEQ

interaction score (O7-bH): -0.662
interaction score (O3-bH): 0.993
interaction score (O5-bH): -1.53
interaction score (O4-bH): -0.611
interaction score (O9-bH): 0.854
interaction score (O8-bP): -0.645
interaction score (O8-bH): 0.211
interaction score (O6-bH): 0.712
Binder: DENQELEKKNEELKRKIWELKKKIQELKR [O2-bH]

interaction score (4H3974-bN): -0.744
interaction score (4H3414-bN): 1.09
interaction score (4H619-bN): -0.774
interaction score (4H850-bN): -1.41
interaction score (4H570-bN): -0.835
interaction score (4H906-bN): -1.2
interaction score (4H3129-bN): -0.749
interaction score (4H3817-bN): -1.45
interaction score (4H584-bN): -1.09
interaction score (4H3631-bN): -1.47
interaction score (4H3172-bN): -0.806
interaction score (4H3638-bN): -1.26
Binder: DKNQQLEQEIQELEQKNQELKWEIQELEQ [4H3129-bN]

interaction score (P7bHq): 0.113
interaction score (P6bHq): 1.03
interaction score (P8bHq): 1
interaction score (P9bHq): -0.205
Binder: DKNQELKKEIEELERENWELEKKIQELKQ [P6bHq]
